# B1: Alsin (Homo sapiens), Q96Q42 (parent)
# chain: MDSKKRSSTEAEGSKERGLVHIWQAGSFPITPERLPGWGGKTVLQAALGVKHGVLLTEDGEVYSFGTLPWRSGPVEICPSSPILENALVGQYVITVATGSFHSGAVTDNGVAYMWGENSAGQCAVANQQYVPEPNPVSIADSEASPLLAVRILQLACGEEHTLALSISREIWAWGTGCQLGLITTAFPVTKPQKVEHLAGRVVLQVACGAFHSLALVQCLPSQDLKPVPERCNQCSQLLITMTDKEDHVIISDSHCCPLGVTLTESQAENHASTALSPSTETLDRQEEVFENTLVANDQSVATELNAVSAQITSSDAMSSQQNVMGTTEISSARNIPSYPDTQAVNEYLRKLSDHSVREDSEHGEKPVPSQPLLEEAIPNLHSPPTTSTSALNSLVVSCASAVGVRVAATYEAGALSLKKVMNFYSTTPCETGAQAGSSAIGPEGLKDSREEQVKQESMQGKKSSSLVDIREEETEGGSRRLSLPGLLSQVSPRLLRKAARVKTRTVVLTPTYSGEADALLPSLRTEVWTWGKGKEGQLGHGDVLPRLQPLCVKCLDGKEVIHLEAGGYHSLALTAKSQVYSWGSNTFGQLGHSDFPTTVPRLAKISSENGVWSIAAGRDYSLFLVDTEDFQPGLYYSGRQDPTEGDNLPENHSGSKTPVLLSCSKLGYISRVTAGKDSYLALVDKNIMGYIASLHELATTERRFYSKLSDIKSQILRPLLSLENLGTTTTVQLLQEVASRFSKLCYLIGQHGASLSSFLHGVKEARSLVILKHSSLFLDSYTEYCTSITNFLVMGGFQLLAKPAIDFLNKNQELLQDLSEVNDENTQLMEILNTLFFLPIRRLHNYAKVLLKLATCFEVASPEYQKLQDSSSCYECLALHLGRKRKEAEYTLGFWKTFPGKMTDSLRKPERRLLCESSNRALSLQHAGRFSVNWFILFNDALVHAQFSTHHVFPLATLWAEPLSEEAGGVNGLKITTPEEQFTLISSTPQEKTKWLRAISQAVDQALRGMSDLPPYGSGSSVQRQEPPISRSAKYTFYKDPRLKDATYDGRWLSGKPHGRGVLKWPDGKMYSGMFRNGLEDGYGEYRIPNKAMNKEDHYVGHWKEGKMCGQGVYSYASGEVFEGCFQDNMRHGHGLLRSGKLTSSSPSMFIGQWVMDKKAGYGVFDDITRGEKYMGMWQDDVCQGNGVVVTQFGLYYEGNFHLNKMMGNGVLLSEDDTIYEGEFSDDWTLSGKGTLTMPNGDYIEGYFSGEWGSGIKITGTYFKPSLYESDKDRPKVFRKLGNLAVPADEKWKAVFDECWRQLGCEGPGQGEVWKAWDNIAVALTTSRRQHRDSPEILSRSQTQTLESLEFIPQHVGAFSVEKYDDIRKYLIKACDTPLHPLGRLVETLVAVYRMTYVGVGANRRLLQEAVKEIKSYLKRIFQLVRFLFPELPEEGSTIPLSAPLPTERKSFCTGKSDSRSESPEPGYVVTSSGLLLPVLLPRLYPPLFMLYALDNDREEDIYWECVLRLNKQPDIALLGFLGVQRKFWPATLSILGESKKVLPTTKDACFASAVECLQQISTTFTPSDKLKVIQQTFEEISQSVLASLHEDFLWSMDDLFPVFLYVVLRARIRNLGSEVHLIEDLMDPYLQHGEQGIMFTTLKACYYQIQREKLN
# Variants of: B1
# Details: with rab5a_human RAB5A
row,effect of a mutation on the interaction,Variant
1,increasing interaction,C157Y

# Variants of: B1
# Details: with eea1_human EEA1, Q15075
# eea1_human EEA1, Q15075, sequence (Q15075 whole entry): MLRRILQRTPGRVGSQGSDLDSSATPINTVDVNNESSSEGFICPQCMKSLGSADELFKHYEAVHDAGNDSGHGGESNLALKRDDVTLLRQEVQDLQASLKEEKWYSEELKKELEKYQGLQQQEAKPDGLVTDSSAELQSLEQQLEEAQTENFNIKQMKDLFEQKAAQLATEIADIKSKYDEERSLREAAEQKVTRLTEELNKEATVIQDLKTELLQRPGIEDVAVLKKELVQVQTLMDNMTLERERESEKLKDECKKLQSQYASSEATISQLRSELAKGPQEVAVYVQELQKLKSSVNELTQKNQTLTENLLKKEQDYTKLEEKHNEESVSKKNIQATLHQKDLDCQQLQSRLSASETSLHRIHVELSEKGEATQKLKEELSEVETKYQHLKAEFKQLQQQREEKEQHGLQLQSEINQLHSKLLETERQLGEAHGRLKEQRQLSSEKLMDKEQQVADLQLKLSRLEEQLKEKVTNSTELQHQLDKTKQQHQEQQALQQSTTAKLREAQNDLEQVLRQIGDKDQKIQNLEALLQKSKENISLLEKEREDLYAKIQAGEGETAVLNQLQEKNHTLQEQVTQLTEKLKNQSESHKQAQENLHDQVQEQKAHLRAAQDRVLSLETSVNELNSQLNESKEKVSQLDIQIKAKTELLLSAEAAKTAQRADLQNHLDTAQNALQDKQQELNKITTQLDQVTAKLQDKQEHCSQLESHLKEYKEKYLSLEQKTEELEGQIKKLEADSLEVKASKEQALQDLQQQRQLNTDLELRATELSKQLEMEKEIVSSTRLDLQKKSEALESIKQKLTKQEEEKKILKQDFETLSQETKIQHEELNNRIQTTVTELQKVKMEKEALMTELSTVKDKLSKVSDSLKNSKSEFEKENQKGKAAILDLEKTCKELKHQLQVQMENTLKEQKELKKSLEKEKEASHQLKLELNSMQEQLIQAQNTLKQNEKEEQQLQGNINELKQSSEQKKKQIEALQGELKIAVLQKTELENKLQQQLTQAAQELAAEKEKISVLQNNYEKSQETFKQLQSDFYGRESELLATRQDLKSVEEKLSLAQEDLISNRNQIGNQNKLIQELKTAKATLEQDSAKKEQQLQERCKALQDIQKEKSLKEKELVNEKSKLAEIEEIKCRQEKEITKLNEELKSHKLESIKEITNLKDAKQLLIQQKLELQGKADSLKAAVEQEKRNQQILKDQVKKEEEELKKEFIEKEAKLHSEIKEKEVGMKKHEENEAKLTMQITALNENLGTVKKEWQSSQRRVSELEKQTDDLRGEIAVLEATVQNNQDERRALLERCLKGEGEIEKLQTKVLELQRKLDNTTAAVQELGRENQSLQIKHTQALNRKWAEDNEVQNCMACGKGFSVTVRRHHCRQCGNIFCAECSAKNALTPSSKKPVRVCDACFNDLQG
row,effect of a mutation on the interaction,Variant
1,disrupting interaction,C157Y

# Variants of: B1
# Details: with rab5a_human RAB5A
# Remark: another data set of the same source
row,effect of a mutation on the interaction,Variant
1,increasing interaction,G540E

# Variants of: B1
# Details: with eea1_human EEA1, Q15075
# Remark: another data set of the same source
row,effect of a mutation on the interaction,Variant
1,disrupting interaction,G540E

# Variants of: B1
# Details: with eea1_human EEA1, Q15075
# Remark: another data set of the same source
row,effect of a mutation on the interaction,Variant
1,disrupting interaction,P1603A

# From IntAct's records for PubMed 21300063
